Experimental data as given in US20220106398A1 (IGM BIOSCIENCES, published 2022).

How the values were obtained:
[1] = molecular target: T1, human His6-GITR (human, UniProt Q9Y5U5 26-162); experiment: CARTERRA LSA, scFv periplasmic extract
T1 construct: His6-tagged recombinant protein; also called hGITR-His; human GITR-His
T1 sequence: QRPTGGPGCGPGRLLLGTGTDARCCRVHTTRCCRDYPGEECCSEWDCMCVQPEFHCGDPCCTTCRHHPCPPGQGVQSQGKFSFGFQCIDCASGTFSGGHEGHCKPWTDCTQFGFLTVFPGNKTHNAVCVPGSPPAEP

[2] = molecular target: T1, human His6-GITR; experiment: ELISA, scFv periplasmic extract on coated His6-GITR
Procedure: (§1) The SuperHuman-2.0 scFv Antibody Library (available from Distributed Bio, South San Francisco, Calif.) was used to perform selection with human, cynomolgus or mouse GITR proteins. Selected phage clones from overnight growth were inoculated into wells in 96 well deep well plates containing 1 mL of medium. scFv expression was induced by addition of IPTG (Teknova) to a final concentration of 1 mM. Plates were grown overnight after induction. To prepare periplasmic extracts (PPE), the plates containing the phage clones were centrifuged at 2500 rpm for 10 min, the supernatant discarded and then pellets treated with 75 μL of cold periplasmic extract buffer with appropriate concentration of protease inhibitors (Complete Mini, EDTA-free -Roche Applied Biosciences—Cat No 1836170). After shaking at room temperature for 10 min, 225 μL of cold ddH2O with added protease inhibitor (1 tablet/50 mL) was added per well and mixed by pipetting up and down. PPE extraction was completed by incubation at room temperature for an additional 1 hr. The plates were then centrifuged at 4000 rpm for 20 minutes and 200 μL of PPE supernatant was collected from each well and transferred to a new plate which was then blocked with equal volume of 4% milk (2% final) to prepare blocked PPE extracts. In the meantime, Maxisorp plates (Nunc 442404) coated with relevant antigen (human, mouse or cynomolgus monkey His6-GITR) at 50 μl/well of 1 μg/mL antigen or 2% BSA in PBS as control were prepared for ELISA analyses. Next, 50 μL of each blocked PPE extract was transferred to the pre-blocked ELISA plates coated with the relevant antigens. After incubation and washing 3× with PBS, 50 μL of anti-V5 tag antibody (tag included in the phage display constructs, Invitrogen Cat No R960-25) at 1:5000 dilution in 2% milk was added and the plates were incubated for 1 hr. […] After further washing 3× with PBST, 50 μl/well of TMB substrate was added and the plates were developed until positive controls were visible. The reaction was stopped with 50 μl/well of 2N H2SO4. Plates were read at 450 nm to determine ELISA signal from bound PPE derived scFv.

[3] = molecular target: T2, mouse His6-GITR (mouse, UniProt O35714 20-153); experiment: as above
T2 construct: His6-tagged recombinant protein; also called mGITR-His; mouse GITR-His
T2 sequence: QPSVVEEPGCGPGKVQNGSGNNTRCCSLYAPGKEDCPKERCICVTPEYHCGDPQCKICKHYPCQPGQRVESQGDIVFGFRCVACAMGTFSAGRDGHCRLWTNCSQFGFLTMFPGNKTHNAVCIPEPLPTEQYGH
Procedure: as §1

[4] = molecular target: T3, cynomolgus monkey His6-GITR (cynomolgus monkey); experiment: as above
T3 construct: His6-tagged recombinant protein; also called cGITR-His; cyno GITR-His
T3 chain: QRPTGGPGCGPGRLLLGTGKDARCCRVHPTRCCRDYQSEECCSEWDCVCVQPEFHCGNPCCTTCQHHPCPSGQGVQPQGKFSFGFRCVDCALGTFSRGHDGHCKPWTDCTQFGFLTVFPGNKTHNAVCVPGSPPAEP
Procedure: as §1

B1: GITR-Mab-9 scFv (scFv, V domains shown)
VH: QVQLVQSGAEVKKPGASVKVSCKASGHTFTSQYMHWVRQAPGQGLEWVGVINPNDGSTSYAQKFQGRVTMTRDTSTSTVYMELSSLRSEDTAVYYCARDGAYYYDSSGYYRSSNFDYWGQGTLVTVSS
VL: DIQMTQSPSSLSASVGDRVTITCQASQDIGNYLNWYQQKPGKAPKLLIYGASNLETGVPSRFSGSGSGTDFTLTISSLQPEDFATYYCQQGYSFPLTFGQGTKVEIK
notes: scFv in periplasmic extract, V5 tag
Kd [1]: 3.3 nM
hGITR-His/BKG [2]: 12.8 fold over background
mGITR-His/BKG [3]: 1.1 fold over background
cGITR-His/BKG [4]: 11.6 fold over background

B2: GITR-Mab-10 scFv (scFv, V domains shown)
VH: QVQLVQSGAEVKKPGASVKVSCKASGYTFTSNYMHWVRQAPGQGLEWMGWMNPNSGNTAYAQKFQGRVTMTRDTSTSTVYMELSSLRSEDTAVYYCARGRGGQLLFDYWGQGTLVTVSS
VL: DIQMTQSPSSLSASVGDRVTITCRASQGISSWLAWYQQKPGKAPKLLIYAASTLQSGVPSRFSGSGSGTDFTLTISSLQPEDFATYYCQQYNSYSTFGQGTKVEIK
notes: as for B1
Kd [1]: 5.3 nM
hGITR-His/BKG [2]: 34.2 fold over background
mGITR-His/BKG [3]: 1.1 fold over background
cGITR-His/BKG [4]: 29.4 fold over background

B3: GITR-Mab-11 scFv (scFv, V domains shown)
VH: QVQLVQSGAEVKKPGASVKVSCKASGGTFSNYGISWVRQAPGQGLEWMGIINPTDGSTTYAQKFQGRVTMTRDTSTSTVYMELSSLRSEDTAVYYCARWWGSGWSWYFDLWGRGTLVTVSS
VL: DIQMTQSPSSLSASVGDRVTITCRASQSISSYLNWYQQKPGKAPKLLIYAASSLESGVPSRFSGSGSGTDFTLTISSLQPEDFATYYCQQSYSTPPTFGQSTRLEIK
notes: as for B1
Kd [1]: 1.4 nM
hGITR-His/BKG [2]: 21.8 fold over background
mGITR-His/BKG [3]: 1.1 fold over background
cGITR-His/BKG [4]: 15.6 fold over background

B4: GITR-Mab-2 scFv (scFv, V domains shown)
VH: QVQLVQSGAEVKKPGSSVKVSCKASGYRFTGYHLHWVRQAPGQGLEWMGGIIPIFGTANYAQKFQGRVTITADKSTSTAYMELSSLRSEDTAVYYCAYGVPPDPWGQGTLVTVSS
VL: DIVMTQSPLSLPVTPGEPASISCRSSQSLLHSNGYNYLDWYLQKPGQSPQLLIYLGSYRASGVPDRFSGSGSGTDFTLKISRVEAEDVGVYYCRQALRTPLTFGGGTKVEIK
notes: as for B1
Kd [1]: 16.3 nM
hGITR-His/BKG [2]: 20.1 fold over background
mGITR-His/BKG [3]: 1.1 fold over background
cGITR-His/BKG [4]: 25.2 fold over background

B5: GITR-Mab-12 scFv (scFv, V domains shown)
VH: QVQLVQSGAEVKKPGASVKVSCKASGYTFTSYAINWVRQAPGQGLEWMGILSPSGGGTSYAPKFQGRVTMTRDTSTSTVYMELSSLRSEDTAVYYCARGPWYFDLWGRGTLVTVSS
VL: DIQMTQSPSSLSASVGDRVTITCRASQGISNSLAWYQQKPGKAPKLLIYAASSLQSGVPSRFSGSGSGTDFTLTISSLQPEDFATYYCQQSYSTPFTFGPGTKVDIK
notes: as for B1
Kd [1]: 7.5 nM
hGITR-His/BKG [2]: 37.8 fold over background
mGITR-His/BKG [3]: 1 fold over background
cGITR-His/BKG [4]: 16.9 fold over background

B6: GITR-Mab-13 scFv (scFv, V domains shown)
VH: QVQLVQSGAEVKKPGSSVKVSCKASGGTFSSYAISWVRQAPGQGLEWMGGIVPMLGSPHYAQKFQGRVTITADESTSTAYMELSSLRSEDTAVYYCARGSWLVADFQHWGQGTLVTVSS
VL: not shown
notes: as for B1
Kd [1]: 2.6 nM
hGITR-His/BKG [2]: 25.4 fold over background
mGITR-His/BKG [3]: 1.1 fold over background
cGITR-His/BKG [4]: 9.4 fold over background

B7: GITR-Mab-14 scFv (scFv, V domains shown)
VH: EVQLLESGGGLVKPGGSLRLSCAASGFRFSVYWMSWVRQAPGKGLEWVSGISGSGGTTYYADSVKGRFTISRDDSKNTLYLQMNSLKTEDTAVYYCARVRRDGYNYNFDYWGQGTLVTVSS
VL: DIQMTQSPSSLSASVGDRVTITCQASQDISNYLNWYQQKPGKAPKLLIFDASSLEAGVPSRFSGSGSGTDFTLTISSLQPEDFATYYCQQANSFPPTFGQGTEVEIK
notes: as for B1
Kd [1]: 30.3 nM
hGITR-His/BKG [2]: 34 fold over background
mGITR-His/BKG [3]: 0.9 fold over background
cGITR-His/BKG [4]: 11.5 fold over background

B8: GITR-Mab-15 scFv (scFv, V domains shown)
VH: QVQLVQSGAEVKKPGSSVKVSCKASGFTFTTSAVQWVRQAPGQGLEWMGGIIPIFGTANYAQKFQGRVTITADESTSTAYMELSSLRSEDTAVYYCAKGSGYEFPGGSEYFQHWGQGTLVTVSS
VL: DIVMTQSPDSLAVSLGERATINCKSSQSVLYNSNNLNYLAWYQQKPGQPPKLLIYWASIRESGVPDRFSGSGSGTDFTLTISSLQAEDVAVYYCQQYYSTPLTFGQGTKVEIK
notes: as for B1
Kd [1]: 52.1 nM
hGITR-His/BKG [2]: 11.4 fold over background
mGITR-His/BKG [3]: 1.2 fold over background
cGITR-His/BKG [4]: 12.3 fold over background

B9: GITR-Mab-16 scFv (scFv, V domains shown)
VH: QVQLVQSGAEVKKPGASVKVSCKASGGTLSSYAISWVRQAPGQGLEWMGWIDPNSGGTNYAQKFQGRVTMTRDTSTSTVYMELSSLRSEDTAVYYCARQGLLWFGESGSIYYYYGMDVWGQGTTVTVSS
VL: DIQMTQSPSSLSASVGDRVTITCRASRSISNYLNWYQQKPGKAPKLLIYGASSLQSGVPSRFSGSGSGTDFTLTISSLQPEDFATYYCQQSYSTLVTFGQGTKVEIK
notes: as for B1
Kd [1]: 0.8 nM
hGITR-His/BKG [2]: 24.1 fold over background
mGITR-His/BKG [3]: 0.8 fold over background
cGITR-His/BKG [4]: 21.6 fold over background

B10: GITR-Mab-18 scFv (scFv, V domains shown)
VH: EVQLLESGGGLVKPGGSLRLSCAASGFTFSSYWMSWVRQAPGKGLEWVSGISWNGGTVGYADSVKGRFTISRDDSKNTLYLQMNSLKTEDTAVYYCAKLGIAVKSHWYFDLWGRGTLVTVSS
VL: DIQMTQSPSSLSASVGDRVTITCRASESISTWLAWYQQKPGKAPKLLIYAASSLQSGVPSRFSGSGSGTDFTLTISSLQPEDFATYYCQQSYTLPLTFGGGTKLEIK
notes: as for B1
Kd [1]: 1 nM
hGITR-His/BKG [2]: 17.9 fold over background
mGITR-His/BKG [3]: 1 fold over background
cGITR-His/BKG [4]: 17.7 fold over background

B11: GITR-Mab-19 scFv (scFv, V domains shown)
VH: QVQLVQSGAEVKKPGASVKVSCKASGYTFTSYDINWVRQAPGQGLEWVGIINPSGGSTSYAQKFQGRVTMTRDTSTSTVYMELSSLRSEDTAVYYCARASSGGYYYYYGMDVWGQGTTVTVSS
VL: DIQMTQSPSSLSASVGDRVTITCRASQDIVNWLAWYQQKPGKAPKLLIYAASSLQSGVPSRFSGSGSGTDFTLTISSLQPEDFATYYCQQYYSYPLTFGQGTRLEIK
notes: as for B1
Kd [1]: 10.8 nM
hGITR-His/BKG [2]: 10 fold over background
mGITR-His/BKG [3]: 1.3 fold over background
cGITR-His/BKG [4]: 24.6 fold over background

B12: GITR-Mab-20 scFv (scFv, V domains shown)
VH: QVQLVQSGAEVKKPGASVKVSCKASGGTFSNYAISWVRQAPGQGLEWMGVINPRGGSTTYAQKFQGRVTMTRDTSTSTVYMELSSLRSEDTAVYYCARDYSIPYYGMDVWGQGTTVTVSS
VL: DIQMTQSPSSLSASVGDRVTITCRASQSISTYLNWYQQKPGKAPKLLIYDASNLETGVPSRFSGSGSGTDFTLTISSLQPEDFATYYCQQSYSTPLTFGGGTKVEIK
notes: as for B1
Kd [1]: 7.8 nM
hGITR-His/BKG [2]: 24.7 fold over background
mGITR-His/BKG [3]: 1.1 fold over background
cGITR-His/BKG [4]: 15.3 fold over background

B13: GITR-Mab-21 scFv (scFv, V domains shown)
VH: EVQLLESGGGLVQPGGSLRLSCAASGFTFSNHYMSWVRQAPGKGLEWVAVIALDGSYRYYADSVKGRFTISRDNSKNTLYLQMNSLRAEDTAVYYCARVGPGGMDVRGQGTTVTVSS
VL: DIQMTQSPSSLSASVGDRVTITCQASQDISNYLNWYQQKPGKAPKLLIYAASSLQSGVPSRFSGSGSGTDFTLTISSLQPEDFATYYCQQSYNSPRVYTFGQGTKVEIK
notes: as for B1
Kd [1]: 2.9 nM
hGITR-His/BKG [2]: 13.5 fold over background
mGITR-His/BKG [3]: 1.2 fold over background
cGITR-His/BKG [4]: 21.2 fold over background

B14: GITR-Mab-22 scFv (scFv, V domains shown)
VH: QVQLVQSGAEVKKPGASVKVSCKASGGRFSTYALSWVRQAPGQGLEWMGIINPTDGSTTYAQKFQGRVTMTRDTSTSTVYMELSSLRSEDTAVYYCARDVYSSSWYSDYWGQGTLVTVSS
VL: DIQMTQSPSSLSASVGDRVTITCRASQSISNWLAWYQQKPGKAPKLLIYAASTLQSGVPSRFSGSGSGTDFTLTISSLQPEDFATYYCQQSYSVPFTFGPGTKVDIK
notes: as for B1
Kd [1]: 2.3 nM
hGITR-His/BKG [2]: 25.7 fold over background
mGITR-His/BKG [3]: 1.2 fold over background
cGITR-His/BKG [4]: 23.3 fold over background

B15: GITR-Mab-24 scFv (scFv, V domains shown)
VH: QVQLVQSGAEVKKPGASVKVSCKASGGTFNNYAINWVRQAPGQGLEWMGTINPRDGDTTYAQKFQGRVTMTRDTSTSTVYMELSSLRSEDTAVYYCARVGYYGSGSYYSYYGMDVWGQGTTVTVSS
VL: DIQMTQSPSSLSASVGDRVTITCRASQNITNWLAWYQQKPGKAPKLLIYAASSLQSGVPSRFSGSGSGTDFTLTISSLQPEDFATYYCQQAYSFPWTFGQGTKVEIK
notes: as for B1
Kd [1]: 38.9 nM
hGITR-His/BKG [2]: 19 fold over background
mGITR-His/BKG [3]: 1.7 fold over background
cGITR-His/BKG [4]: 5.7 fold over background
